Test results: patent US20240374671A1 (ACCELERON PHARMA, published 2024)
Where two headings read alike, the source gives them in different places.

T1: monomeric hActRIIB (human, UniProt Q13705 25-130, limits assumed)
T1 construct: also called ActRIIB MONOMER; ActRIIB monomer
T1 sequence: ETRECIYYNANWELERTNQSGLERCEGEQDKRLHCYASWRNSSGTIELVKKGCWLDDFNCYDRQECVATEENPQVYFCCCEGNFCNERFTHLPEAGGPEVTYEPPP

T2: dimeric hActRIIB (human, UniProt Q13705 25-130)
T2 construct: also called ActRIIB DIMER; ActRIIB dimer
T2 sequence: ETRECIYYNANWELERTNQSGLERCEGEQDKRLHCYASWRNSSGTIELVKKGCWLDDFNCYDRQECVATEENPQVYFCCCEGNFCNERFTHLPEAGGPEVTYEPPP

B1: F02 (antibody, human IgG1, kappa, V domains shown)
VH: EVQLLESGGGLVQPGGSLRLSCAASGFTFSRYAMSWVRQAPGKGLEWVSGISGSGGATYYADSVKGRFTISRDNSKNTLYLQMNSLRAEDTAVYYCAKDPLSLLLGYFDYWGQGALVTVSS
VL: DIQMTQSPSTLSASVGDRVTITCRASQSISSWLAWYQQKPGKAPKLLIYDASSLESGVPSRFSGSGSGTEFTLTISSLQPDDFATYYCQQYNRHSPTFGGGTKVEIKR
notes: Human IgG; also called F02 variant; F02 optimized antibody
B2: H01 (antibody, human IgG1, kappa, V domains shown)
VH: QVQLQESGPGLVKPSETLSLTCAVSGYSISSGVYWMWIRQPPGKGLEWIGSIVHSGHTYYNPSLKSRVTISVDTSKNQFSLKLSSVTAADTAVYYCARAGKYRWHGMDVWGQGTTVTVSS
VL: DIQMTQSPSSVSASVGDRVTITCRASQGISSWLAWYQQKPGKAPKLLIYAASNLQSGVPSRFSGSGSGTDFTLTISSLQPEDFATYYCQQAPDLPITFGGGTKVEIKR
notes: Human IgG

What was measured:
Test in all cases: SPR (Biacore), 37 C
[1] = target: T1, monomeric hActRIIB
[2] = target: T2, dimeric hActRIIB
[3] = target: T3, monomeric hActRIIA (human, UniProt P27037 21-138, limits assumed)
T3 construct: also called ActRIIA MONOMER; ActRIIA monomer
T3 sequence (P27037 21-138 limits assumed): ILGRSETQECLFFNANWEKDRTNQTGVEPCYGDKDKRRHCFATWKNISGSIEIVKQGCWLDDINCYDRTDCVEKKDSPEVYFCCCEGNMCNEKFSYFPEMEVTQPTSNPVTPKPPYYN

[4] = target: T4, dimeric hActRIIA (human, UniProt P27037 21-138)
T4 construct: also called ActRIIA DIMER; ActRIIA dimer
T4 sequence (P27037 21-138): as the sequence (P27037 21-138 limits assumed) above

[5] = target: T1, monomeric hActRIIB; remark: listed apart in the source
[6] = target: T2, dimeric hActRIIB; remark: listed apart in the source
[7] = target: T3, monomeric hActRIIA; remark: listed apart in the source
[8] = target: T4, dimeric hActRIIA; remark: listed apart in the source

Binder | Kd [1] [nM] | koff [1] [s⁻¹] | kon [1] [M⁻¹ s⁻¹] | Kd [2] [nM] | koff [2] [s⁻¹] | kon [2] [M⁻¹ s⁻¹] | binding result [3] | binding result [4] | Kd [5] [nM] | koff [5] [s⁻¹] | kon [5] [M⁻¹ s⁻¹] | Kd [6] [nM] | koff [6] [s⁻¹] | kon [6] [M⁻¹ s⁻¹] | binding result [7] | binding result [8]
B1 | 2.63 | 0.000313 | 119000 | 0.738 | 3.46e-05 | 46900 | no binding | no binding |  |  |  |  |  |  |  | 
B2 |  |  |  |  |  |  |  |  | 11.8 | 0.023 | 1.95e+06 | 0.353 | 0.000127 | 358000 | no binding | no binding
